Measurements published in the supplement of paper PMC10724198.
± gives the standard deviation of the averaged measurements.

Tested on: Saccharomyces cerevisiae
Assay: protein stability index of tFT-peptide fusion (C-terminal peptide) (PSI (0-1 scale)); higher = more stable (slower turnover)
Conditions: genetic background: wild type; temperature: 30 C
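Note: PSI is a weighted mean of sequencing reads over stability bins, variants kept only with over 10 reads, mCherry proximal and sfGFP distal, peptide attached via GGGS linker.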

Q: With TMSGVTRCVLVL as the sequence, how does the protein stability index read?
A: 0.423 ± 0.015

Q: TNEWMDVKVFCY was tested. Which protein stability index did it give?
A: 0.491 ± 0.088

Q: For TSFSSGEALGVG, which protein stability index is on record?
A: 0.483 ± 0.01

Q: How did the protein stability index turn out when TVHVIVVCRELA was run?
A: 0.3271 ± 0.0022

Q: TVRLPLILPCVL was tested. Which protein stability index did it give?
A: 0.4884 ± 0.0042

Q: For TVRVWPRNLWFS, which protein stability index is on record?
A: 0.176 ± 0.021

Q: How did the protein stability index turn out when TWGGGRVSLGVG was run?
A: 0.328 ± 0.016

Q: TYHRSYLLATVV was tested. Which protein stability index did it give?
A: 0.314 ± 0.025

Q: For VACTCILVALVV, which protein stability index is on record?
A: 0.142 ± 0.035

Q: Which protein stability index does the source give for VAFLYCHFFYCI here?
A: 0.415 ± 0.013

Q: VAVFFFCRVFFL was tested. Which protein stability index did it give?
A: 0.289 ± 0.026

Q: For VCCYILFFLFPV, which protein stability index is on record?
A: 0.418 ± 0.011

Q: VCLRICLVTLMM was tested. Which protein stability index did it give?
A: 0.428 ± 0.03

Q: VCPCCPYVMIAG was tested. Which protein stability index did it give?
A: 0.489 ± 0.018

Q: How did the protein stability index turn out when VCSCLVLVFCCC was run?
A: 0.298 ± 0.037

Q: Which protein stability index does the source give for VCVARICIWDFL here?
A: 0.51 ± 0.033

Q: For VCWVYESWKCLA, which protein stability index is on record?
A: 0.168 ± 0.026

Q: With VCYLMRSLTFAY as the sequence, how does the protein stability index read?
A: 0.45 ± 0.0099

Q: VECVCVVVVRRM was tested. Which protein stability index did it give?
A: 0.351 ± 0.017

Q: How did the protein stability index turn out when VFLCVRLGFIFL was run?
A: 0.446 ± 0.026

Q: How did the protein stability index turn out when VFLLCLGFLVFS was run?
A: 0.336 ± 0.038

Q: VFLRRFGVPWVF was tested. Which protein stability index did it give?
A: 0.365 ± 0.017

Q: With VFLSCFFVSWVV as the sequence, how does the protein stability index read?
A: 0.3269 ± 0.0017

Q: VFLYVYAVWFLV was tested. Which protein stability index did it give?
A: 0.164 ± 0.025

Q: VFSFLYHVVPVL was tested. Which protein stability index did it give?
A: 0.441 ± 0.01

Q: Which protein stability index does the source give for VFVMRDGFLRKV here?
A: 0.374 ± 0.044

Q: Which protein stability index does the source give for VFWISRLYLASY here?
A: 0.456 ± 0.02

Q: How did the protein stability index turn out when VGDFFVLVGFVA was run?
A: 0.492 ± 0.053

Q: How did the protein stability index turn out when VGDIRSFALWYA was run?
A: 0.745 ± 0.041

Q: For VGGGGRFWVCVG, which protein stability index is on record?
A: 0.406 ± 0.04

Q: With VGVSCLVFFGVV as the sequence, how does the protein stability index read?
A: 0.549 ± 0.11

Q: For VIAYSLLSWGDF, which protein stability index is on record?
A: 0.371 ± 0.028

Q: With VLDFSVPRHVLH as the sequence, how does the protein stability index read?
A: 0.707 ± 0.024

Q: How did the protein stability index turn out when VLFFCLVIYVGV was run?
A: 0.217 ± 0.018

Q: Which protein stability index does the source give for VLILFFLVVFYV here?
A: 0.262 ± 0.037

Q: With VLLCASPMLAVV as the sequence, how does the protein stability index read?
A: 0.393 ± 0.03

Q: With VLLCGCVWLWWG as the sequence, how does the protein stability index read?
A: 0.4494 ± 0.0012

Q: For VLLFGLAFFFSF, which protein stability index is on record?
A: 0.371 ± 0.055

Q: How did the protein stability index turn out when VLLGYPRILSLF was run?
A: 0.35 ± 0.061

Q: With VLLRSRLLRRLS as the sequence, how does the protein stability index read?
A: 0.211 ± 0.024

Q: With VLRCIWLCFLSV as the sequence, how does the protein stability index read?
A: 0.465 ± 0.043

Q: For VLRLVLFVLISV, which protein stability index is on record?
A: 0.337 ± 0.0069

Q: Which protein stability index does the source give for VLSCVWFVVVGV here?
A: 0.3596 ± 0.00083

Q: VLYWTGTLFVSL was tested. Which protein stability index did it give?
A: 0.307 ± 0.035

Q: VPIIVVVYVFVT was tested. Which protein stability index did it give?
A: 0.203 ± 0.085

Q: How did the protein stability index turn out when VRFLLSLCCALL was run?
A: 0.4914 ± 0.0025

Q: Which protein stability index does the source give for VRLYLRSCVVES here?
A: 0.32 ± 0.021

Q: With VRMVIFSSVYLT as the sequence, how does the protein stability index read?
A: 0.309 ± 0.0098

Q: Which protein stability index does the source give for VRWLVFFLFLFG here?
A: 0.466 ± 0.074

Q: For VSCLDLCFVISR, which protein stability index is on record?
A: 0.437 ± 0.013

Q: For VSCYYVFLIPFW, which protein stability index is on record?
A: 0.484 ± 0.02

Q: How did the protein stability index turn out when VSFLLYNFLSVF was run?
A: 0.101 ± 0.0017

Q: For VSFLVSIFVSGV, which protein stability index is on record?
A: 0.303 ± 0.039

Q: For VSLLSLGYVFVY, which protein stability index is on record?
A: 0.307 ± 0.019

Q: With VSLLVFVVSSRV as the sequence, how does the protein stability index read?
A: 0.3816 ± 0.0022

Q: With VSPPPLSPPLSR as the sequence, how does the protein stability index read?
A: 0.701 ± 0.0022

Q: With VTMTPSLCFSYS as the sequence, how does the protein stability index read?
A: 0.464 ± 0.018

Q: Which protein stability index does the source give for VTRLLLSRIDCY here?
A: 0.445 ± 0.11

Q: VVFLFVEAVVGV was tested. Which protein stability index did it give?
A: 0.0707 ± 0.0075

Q: For VVFVVGAPPVLC, which protein stability index is on record?
A: 0.4834 ± 0.0027

Q: For VVGVVVCWGCGW, which protein stability index is on record?
A: 0.45 ± 0.023

Q: For VVPWLGYVSCFS, which protein stability index is on record?
A: 0.465 ± 0.041

Q: How did the protein stability index turn out when VVRAVLCVCASV was run?
A: 0.45987 ± 0.00039

Q: VVRYGGVIAFRG was tested. Which protein stability index did it give?
A: 0.596 ± 0.24

Q: With VVWCLLARVLLV as the sequence, how does the protein stability index read?
A: 0.218 ± 0.026

Q: For VWICPTLFLLFS, which protein stability index is on record?
A: 0.455 ± 0.014

Q: VYDVSVGVAVVG was tested. Which protein stability index did it give?
A: 0.4567 ± 0.002

Q: Which protein stability index does the source give for VYKSTHKIYILT here?
A: 0.45 ± 0.022

Q: For VYQAFIFRMSLF, which protein stability index is on record?
A: 0.243 ± 0.068

Q: How did the protein stability index turn out when VYRVTGSWLMWV was run?
A: 0.434 ± 0.007

Q: How did the protein stability index turn out when VYTVGFVCWLVY was run?
A: 0.316 ± 0.026

Q: VYWRGLHLQRLL was tested. Which protein stability index did it give?
A: 0.418 ± 0.05

Q: For WALWGFVFWDWW, which protein stability index is on record?
A: 0.497 ± 0.03

Q: WCGLFCRSVFVV was tested. Which protein stability index did it give?
A: 0.158 ± 0.072

Q: How did the protein stability index turn out when WDEVVAIVVCPV was run?
A: 0.39 ± 0.023

Q: For WFALFYFLVSAF, which protein stability index is on record?
A: 0.266 ± 0.011

Q: With WFCYFSLYVFLL as the sequence, how does the protein stability index read?
A: 0.214 ± 0.095

Q: How did the protein stability index turn out when WFFRCLFLLSLF was run?
A: 0.202 ± 0.034
